This note sets out measurements from paper PMC3215702, “The Nuclear Pore Complex Mediates Binding of the Mig1 Repressor to Target Promoters” (PLoS ONE, 2011).

The target in experiment [1] is nuclear pore complex of nup120Δ cells (S. cerevisiae (endogenous)) (UniProt P52891). In words: co-fractionation with isolated NPCs (QFPD, quantitative fluorescent protein detection); glucose-grown (repressing) cells; nuclei isolated on sucrose/PVP-40 gradients, lysed with DNase I, NPC fraction floated on sucrose/Nycodenz gradient; GFP fluorescence of the fractions read on a Typhoon imager; values relative to wild type; also done in gcr1Δ and gcr1Δ nup84Δ strains.
Chain of nuclear pore complex of nup120Δ cells (S. cerevisiae (endogenous)) (P52891 whole entry, looked up, stated change not applied, one chain of several): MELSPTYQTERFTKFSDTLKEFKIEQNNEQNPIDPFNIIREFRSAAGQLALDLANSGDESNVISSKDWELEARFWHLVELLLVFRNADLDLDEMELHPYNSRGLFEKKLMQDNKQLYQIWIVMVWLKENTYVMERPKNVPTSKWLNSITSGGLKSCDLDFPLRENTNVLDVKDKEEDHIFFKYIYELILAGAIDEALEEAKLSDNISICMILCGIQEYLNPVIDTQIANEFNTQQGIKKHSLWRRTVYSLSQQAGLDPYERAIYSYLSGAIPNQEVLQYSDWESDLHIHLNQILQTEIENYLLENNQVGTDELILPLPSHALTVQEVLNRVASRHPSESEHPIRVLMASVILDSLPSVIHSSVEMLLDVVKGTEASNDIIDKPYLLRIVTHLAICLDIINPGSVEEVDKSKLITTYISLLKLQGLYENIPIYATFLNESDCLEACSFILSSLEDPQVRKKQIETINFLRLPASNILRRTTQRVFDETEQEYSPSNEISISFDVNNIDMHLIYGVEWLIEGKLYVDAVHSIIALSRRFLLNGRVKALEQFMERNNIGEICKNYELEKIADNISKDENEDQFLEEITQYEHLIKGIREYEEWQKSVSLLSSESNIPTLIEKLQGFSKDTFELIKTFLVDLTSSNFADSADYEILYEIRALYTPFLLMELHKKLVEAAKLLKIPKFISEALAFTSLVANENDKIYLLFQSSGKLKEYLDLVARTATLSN

Experiment [2] concerns the target nuclear pore complex of nup133Δ cells (S. cerevisiae (endogenous)) (UniProt P52891). The description is as above.
Experiment [3] concerns the target nuclear pore complex of nup84Δ cells (S. cerevisiae (endogenous)) (UniProt P35729). The experiment is described as above.
In a further experiment the target is T1, Mig1-GFP fusion protein (S. cerevisiae, UniProt P27705 1-504).
T1 construct: Mig1, glucose-regulated repressor of S. cerevisiae; GFP tag integrated at the MIG1 locus; Called a fully functional fusion; also called GFP-tagged Mig1; source: S. cerevisiae, Mig1-GFP strain from the Yeast GFP Clone collection (Invitrogen), integrated GFP tag; in crude lysate or cell fractions
T1 sequence (P27705 whole entry, the tested form may be a part): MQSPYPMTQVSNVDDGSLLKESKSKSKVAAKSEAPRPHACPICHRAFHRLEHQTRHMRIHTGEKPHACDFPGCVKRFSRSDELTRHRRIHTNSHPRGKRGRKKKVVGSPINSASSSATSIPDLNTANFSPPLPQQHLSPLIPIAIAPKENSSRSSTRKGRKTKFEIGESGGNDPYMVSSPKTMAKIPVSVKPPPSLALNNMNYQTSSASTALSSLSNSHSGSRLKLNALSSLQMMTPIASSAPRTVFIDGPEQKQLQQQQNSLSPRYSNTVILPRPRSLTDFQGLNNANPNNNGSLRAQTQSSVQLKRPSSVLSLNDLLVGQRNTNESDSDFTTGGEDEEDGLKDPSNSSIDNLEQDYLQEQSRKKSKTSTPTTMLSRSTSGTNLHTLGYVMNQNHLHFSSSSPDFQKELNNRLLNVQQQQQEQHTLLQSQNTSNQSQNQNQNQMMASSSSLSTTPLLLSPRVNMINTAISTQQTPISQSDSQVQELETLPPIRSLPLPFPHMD
Description: co-IP; anti-GFP antibody added to crude lysate of glucose-grown cells, protein A sepharose; eluate blotted and probed with anti-lexA antibody (anti-GFP as control). The note with it: partners not purified.

Chain of nuclear pore complex of nup133Δ cells (S. cerevisiae (endogenous)) (P52891 whole entry, looked up, stated change not applied, one chain of several): as the sequence (P52891 whole entry, looked up, stated change not applied, one chain of several) above
Chain of nuclear pore complex of nup84Δ cells (S. cerevisiae (endogenous)) (P35729 whole entry, looked up, stated change not applied, the tested form may be a part, one chain of several): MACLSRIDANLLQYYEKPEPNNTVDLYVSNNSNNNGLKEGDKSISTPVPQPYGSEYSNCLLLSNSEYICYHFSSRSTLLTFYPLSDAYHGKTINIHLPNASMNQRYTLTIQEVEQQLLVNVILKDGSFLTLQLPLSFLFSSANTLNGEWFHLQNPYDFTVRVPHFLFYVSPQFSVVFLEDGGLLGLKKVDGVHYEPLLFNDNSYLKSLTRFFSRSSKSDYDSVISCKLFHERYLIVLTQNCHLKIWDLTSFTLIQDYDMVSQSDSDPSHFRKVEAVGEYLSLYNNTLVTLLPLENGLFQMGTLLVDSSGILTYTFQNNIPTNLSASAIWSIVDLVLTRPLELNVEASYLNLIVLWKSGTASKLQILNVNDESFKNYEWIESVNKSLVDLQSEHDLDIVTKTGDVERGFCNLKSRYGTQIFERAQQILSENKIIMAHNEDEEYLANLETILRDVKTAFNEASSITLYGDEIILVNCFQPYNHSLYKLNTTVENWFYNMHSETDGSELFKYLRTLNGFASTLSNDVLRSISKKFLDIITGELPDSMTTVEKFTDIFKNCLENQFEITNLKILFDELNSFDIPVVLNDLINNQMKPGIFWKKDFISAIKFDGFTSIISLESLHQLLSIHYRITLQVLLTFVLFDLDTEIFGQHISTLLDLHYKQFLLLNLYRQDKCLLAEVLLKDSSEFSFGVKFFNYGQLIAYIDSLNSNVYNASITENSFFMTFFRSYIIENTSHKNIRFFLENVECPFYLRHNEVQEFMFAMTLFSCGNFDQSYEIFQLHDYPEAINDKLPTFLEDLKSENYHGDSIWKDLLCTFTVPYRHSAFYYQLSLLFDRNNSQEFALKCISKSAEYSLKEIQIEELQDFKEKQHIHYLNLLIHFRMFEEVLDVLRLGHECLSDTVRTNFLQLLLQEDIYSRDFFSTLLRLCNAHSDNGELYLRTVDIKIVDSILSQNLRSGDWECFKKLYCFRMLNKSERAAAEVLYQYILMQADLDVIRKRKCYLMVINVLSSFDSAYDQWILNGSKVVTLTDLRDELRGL

In the case of “Mig1-GFP fusion protein (from UniProt P27705 1-504) (natural protein)”, the perinuclear Mig1 relative to wild type (relative to wild type (1.00)) in experiment [1] was 0.43; in experiment [2], 0.03; in experiment [3], 1.3.

B1: Nup53-lexA (natural protein, S. cerevisiae, UniProt Q03790 1-475, looked up)
chain: MADLQKQENSSRFTNVSVIAPESQGQHEQQKQQEQLEQQKQPTGLLKGLNGFPSAPQPLFMEDPPSTVSGELNDNPAWFNNPRKRAIPNSIIKRSNGQSLSPVRSDSADVPAFSNSNGFNNVTFGSKKDPRILKNVSPNDNNSANNNAHSSDLGTVVFDSNEAPPKTSLADWQKEDGIFSSKTDNIEDPNLSSNITFDGKPTATPSPFRPLEKTSRILNFFDKNTKTTPNTASSEASAGSKEGASTNWDDHAIIIFGYPETIANSIILHFANFGEILEDFRVIKDFKKLNSKNMSKSPSLTAQKYPIYTGDGWVKLTYKSELSKSRALQENGIIMNGTLIGCVSYSPAALKQLASLKKSEEIINNKTSSQTSLSSKDLSNYRKTEGIFEKAKAKAVTSKVRNAEFKVSKNSTSFKNPRRLEIKDGRSLFLRNRGKIHSGVLSSIESDLKKREQASKSKKSWLNRLNNWLFGWNDL
notes: Nup53, nucleoporin, S. cerevisiae; source: S. cerevisiae Mig1-GFP strain, in crude lysate
B1: the “fold reduction in co-immunoprecipitation relative to Nup84-lexA” value with Mig1-GFP fusion protein is greater than 2 fold.
